# Assay results as given in article PMC4860565, “N6-Methyladenosine: a conformational marker that regulates the substrate specificity of human demethylases FTO and ALKBH5”.
# T1: YTHDF2 (Homo sapiens, UniProt Q9Y5A9 385-576)
# T1 sequence: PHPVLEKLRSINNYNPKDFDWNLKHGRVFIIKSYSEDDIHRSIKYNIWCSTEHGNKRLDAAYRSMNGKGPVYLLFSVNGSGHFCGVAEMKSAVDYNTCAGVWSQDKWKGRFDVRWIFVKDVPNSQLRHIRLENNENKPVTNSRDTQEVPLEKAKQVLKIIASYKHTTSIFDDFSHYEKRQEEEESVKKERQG
# B1: 11 (ssRNA)
# RNA: GCGGACUCCAGAUG
# modifications: m6A at position 5
# B2: biotin-15 (dsRNA)
# RNA 1: GCGGACUAGUCCGC
# RNA 2: GCGGACUAGUCCGC
# modifications: m6A at position 5 of each strand
# B3: biotin-11 (ssRNA)
# RNA: GCGGACUCCAGAUG
# modifications: m6A at position 5
# B4: 25 (structured_RNA)
# RNA: GCGGACUCCACCGC
# modifications: m6A at position 5
# Legend:
# [1] = biological target: T2, FTO (Homo sapiens, UniProt Q9C0B1 1-505); assay: MST (label-free); 1 mM NiSO4, 500 uM NOG; MST: 50 mM Tris pH 7.5, 150 mM NaCl, 0.05% Tween 20, 25 C; EMSA: 10 mM HEPES pH 7.3, 5% glycerol, 20 mM KCl, 1 mM MgCl2, 1 mM DTT, RNasin, 4 nM RNA, 4 C; conditions: protein: recombinant, tags: His6 (pNIC28-Bsa4)
# T2 sequence (Q9C0B1 whole entry): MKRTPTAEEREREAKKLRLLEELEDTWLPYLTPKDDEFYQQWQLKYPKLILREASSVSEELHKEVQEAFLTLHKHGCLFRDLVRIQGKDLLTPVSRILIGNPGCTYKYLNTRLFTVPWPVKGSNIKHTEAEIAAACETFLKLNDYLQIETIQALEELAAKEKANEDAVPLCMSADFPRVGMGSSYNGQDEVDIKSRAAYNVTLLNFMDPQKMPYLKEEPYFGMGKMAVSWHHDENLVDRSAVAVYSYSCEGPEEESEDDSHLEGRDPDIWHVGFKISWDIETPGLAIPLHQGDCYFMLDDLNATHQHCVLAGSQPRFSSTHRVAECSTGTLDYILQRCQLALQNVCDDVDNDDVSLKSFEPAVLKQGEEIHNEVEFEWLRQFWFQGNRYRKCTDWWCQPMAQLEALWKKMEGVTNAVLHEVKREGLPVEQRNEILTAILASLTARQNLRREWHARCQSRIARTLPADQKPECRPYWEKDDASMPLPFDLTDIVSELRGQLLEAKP
# [2] = biological target: T3, ALKBH5 (Homo sapiens, UniProt Q6P6C2 66-292); assay: MST (label-free); 1 mM MnCl2, NOG presumably as for FTO; MST: 50 mM Tris pH 7.5, 150 mM NaCl, 0.05% Tween 20, 25 C; EMSA: 10 mM HEPES pH 7.3, 5% glycerol, 20 mM KCl, 1 mM MgCl2, 1 mM DTT, RNasin, 4 nM RNA, 4 C; conditions: protein: recombinant, tags: His6 (pNIC28-Bsa4)
# T3 sequence (Q6P6C2 66-292): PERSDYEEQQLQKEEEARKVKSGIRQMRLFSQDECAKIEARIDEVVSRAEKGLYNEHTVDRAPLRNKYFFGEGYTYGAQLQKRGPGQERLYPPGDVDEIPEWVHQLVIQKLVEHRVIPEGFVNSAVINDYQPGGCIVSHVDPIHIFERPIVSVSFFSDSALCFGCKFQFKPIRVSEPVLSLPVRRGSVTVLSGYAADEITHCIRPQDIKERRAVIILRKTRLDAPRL
# [3] = biological target: T3, ALKBH5; assay: EMSA; 1 mM MgCl2; no binding at 1250-fold excess protein (5 uM); MST: 50 mM Tris pH 7.5, 150 mM NaCl, 0.05% Tween 20, 25 C; EMSA: 10 mM HEPES pH 7.3, 5% glycerol, 20 mM KCl, 1 mM MgCl2, 1 mM DTT, RNasin, 4 nM RNA, 4 C; conditions: protein: recombinant; tags: His6 (pNIC28-Bsa4); label: 3' biotin; blunt self-complementary duplex, 2 copies of one strand
# [4] = biological target: T2, FTO; assay: as above; conditions: protein: recombinant; tags: His6 (pNIC28-Bsa4); label: 3' biotin; blunt self-complementary duplex, 2 copies of one strand
# [5] = biological target: T1, YTHDF2; assay: EMSA; 1 mM MgCl2; up to 5 uM protein; MST: 50 mM Tris pH 7.5, 150 mM NaCl, 0.05% Tween 20, 25 C; EMSA: 10 mM HEPES pH 7.3, 5% glycerol, 20 mM KCl, 1 mM MgCl2, 1 mM DTT, RNasin, 4 nM RNA, 4 C; conditions: protein: recombinant; tags: GST (pGEX-6P-1); label: 3' biotin; random coil single strand
binder,measurement,setting,value
B1,Kd,[1]; random coil single strand,97.1 ± 6.66 µM
same,Kd,[2]; random coil single strand,52.9 ± 2.21 µM
B2,binding result,[3],no binding
same,binding result,[4],no binding
B3,binding result,[5],binds
B4,Kd,[1]; hairpin,91.3 ± 4.65 µM
same,Kd,[2]; hairpin,75.3 ± 2.01 µM
